Read-outs that look alike come from different tables or passages of the source. Marks after values point to notes of the source that are not given here.
Experiments:
[1] = orthogonalized contingency lattice analysis of AERS reports, reference condition rhabdomyolysis; settings: for Z (z-score, rhabdomyolysis vs non-rhabdomyolysis randomized datasets): * = significant at Bonferroni-corrected 5% level (|z| > 12); for Nrhabdo (subset size based on the rhabdomyolysis dataset): records listing the drug(s) and excluding the other drugs, NR=11,773
Protocol: As a consequence, it should be noted that all of these subsets are mutually exclusive, with no patient appearing in more than one subset.
The results obtained from the orthogonalized contingency lattice just described are analyzed exactly as in the case of the basic contingency lattice described previously.
As before, significance is assessed using the Bonferroni-corrected z-score analysis described earlier herein. The primary difference between the results obtained with the original contingency lattice construction and those obtained with the orthogonalized construction lies in the fact that the orthogonalized patient subsets are mutually exclusive.

[2] = human
[3] = two-way interaction analysis of AERS records, Infliximab and Methotrexate with pulmonary fibrosis; parameters: species or system patients; settings: records listing both drugs vs 100 random samples of each reference population; FIG. 6
Description: In the following description, let N denote the size of the first subset listed above—i.e., the total number of records in the available database listing both drugs. The interaction analysis considered here begins by computing NX, the number of times that Reaction X appears in this first record subset, and the objective of the analysis is to provide reference numbers to answer the following questions:
Each of these questions defines a collection of random reference sets that may be used to provide answers. Specifically, M random samples, each of size N, are drawn from the reference population defined by each of these questions (i.e., Drug A alone, Drug B alone, and neither drug), and the number of records in each random sample that also lists Reaction X is recorded.

[4] = N=898 tuberculosis patients vs 200 random samples; Bonferroni-corrected 5% threshold; FIG. 7
[5] = reaction: antinuclear antibody positive
[6] = reaction: crohn's disease aggravated
[7] = reaction: disseminated tuberculosis
[8] = reaction: dna antibody nos positive
[9] = reaction: drug withdrawal syndrome
[10] = reaction: infusion related reaction
[11] = reaction: pharmaceutical product complaint
[12] = reaction: pneumocystis carinii pneumonia
[13] = reaction: pulmonary tuberculosis
[14] = reaction: rheumatoid arthritis aggravated
[15] = reaction: systemic lupus erythematosus

## Cc1ccc(C)c(OCCCC(C)(C)C(=O)O)c1 [Case L, gemfibrozil]
[1]
  Nref^+ (maximum subset size from the 200 randomly generated non-rhabdomyolysis datasets): 55
  Nref^− (minimum subset size from the 200 randomly generated non-rhabdomyolysis datasets): 21
  PChebyshev (probability derived from the Chebyshev inequality): 5.36 × 10^−4
  association with rhabdomyolysis (in words): only weak evidence
  Nrhabdo (subset size based on the rhabdomyolysis dataset): 306
[1]; listed as L BP
  Z (z-score, rhabdomyolysis vs non-rhabdomyolysis randomized datasets): 43*
[1]; listed as Lopid
  Z (z-score, rhabdomyolysis vs non-rhabdomyolysis randomized datasets): 43
[2]
  Nref^+ (maximum subset size from the 200 randomly generated non-rhabdomyolysis datasets): 72
  Nref^− (minimum subset size from the 200 randomly generated non-rhabdomyolysis datasets): 33
  Nrhabdo (subset size based on the rhabdomyolysis dataset): 2982
  PChebyshev (probability derived from the Chebyshev inequality): 6.16 × 10^−6

## COC(=O)[C@H](c1ccccc1Cl)N1CCc2sccc2C1 [Case P, clopidogrel bisulfate]
[1]
  Nref^+ (maximum subset size from the 200 randomly generated non-rhabdomyolysis datasets): 169
  Nref^− (minimum subset size from the 200 randomly generated non-rhabdomyolysis datasets): 109
  PChebyshev (probability derived from the Chebyshev inequality): 2.20 × 10^−1
  Z (z-score, rhabdomyolysis vs non-rhabdomyolysis randomized datasets): 2
  Nrhabdo (subset size based on the rhabdomyolysis dataset): 163
[2]
  Nref^+ (maximum subset size from the 200 randomly generated non-rhabdomyolysis datasets): 177
  Nref^− (minimum subset size from the 200 randomly generated non-rhabdomyolysis datasets): 114
  Nrhabdo (subset size based on the rhabdomyolysis dataset): 465
  PChebyshev (probability derived from the Chebyshev inequality): 1.43 × 10^−3
  association with rhabdomyolysis (in words): significant at the Bonferroni-corrected 5%
  z (z-score, rhabdomyolysis vs non-rhabdomyolysis datasets): 26*

## CN(Cc1cnc2nc(N)nc(N)c2n1)c1ccc(C(=O)N[C@@H](CCC(=O)O)C(=O)O)cc1 [Methotrexate, methotrexate]
[3]
  drug interaction with respect to pulmonary fibrosis (in words): responsible for the large number of cases seen when both drugs are present

## infliximab
[4]
  association with tuberculosis by orthogonalized lattice analysis (in words): only strong positive association with tuberculosis
AERS
  number of adverse events that exceed the Bonferroni-corrected 5% significance threshold: 365
designation: bone & joint tuberculosis
  Uab: 1.09 × 10^5
designation: bone amp joint tuberculosis
  Uab: 1.34 × 10^6
designation: disseminated tuberculosis
  Uab: 6.22 × 10^117
designation: lymph node tuberculosis
  Uab: 1.57 × 10^8
designation: lymph node tuberculosis nos
  Uab: 4.98 × 10^15
designation: peritoneal tuberculosis
  Uab: 8.61 × 10^9
designation: pulmonary tuberculosis
  Uab: 1.11 × 10^109
designation: spleen tuberculosis
  Uab: 1.47 × 10^12
designation: tuberculosis
  Uab: 1.18 × 10^74
designation: tuberculosis gastrointestinal nos
  Uab: 2.85 × 10^10
designation: tuberculosis nos
  Uab: >10^308
designation: tuberculosis reactivated
  Uab: 3.40 × 10^6
[5]
  NAB: 65
  RAB: 12.93
  log10 UAB (Statistical Unexpectedness): 51.53
reaction: basal cell carcinoma
  NAB: 88
  RAB: 21.17
  log10 UAB (Statistical Unexpectedness): 92.07
reaction: crohn's disease
  NAB: 60
  RAB: 11.26
  log10 UAB (Statistical Unexpectedness): 43.74
[6]
  NAB: 45
  RAB: 22.02
  log10 UAB (Statistical Unexpectedness): 48.51
[7]
  NAB: 93
  RAB: 30.00
  log10 UAB (Statistical Unexpectedness): 117.79
[8]
  NAB: 59
  RAB: 24.01
  log10 UAB (Statistical Unexpectedness): 66.39
[9]
  NAB: 2
  RAB: 0.02
  log10 UAB (Statistical Unexpectedness): 44.68
reaction: flushing
  NAB: 254
  RAB: 4.37
  log10 UAB (Statistical Unexpectedness): 83.41
[10]
  NAB: 63
  RAB: 19.32
  log10 UAB (Statistical Unexpectedness): 62.93
reaction: listeriosis
  NAB: 41
  RAB: 30.26
  log10 UAB (Statistical Unexpectedness): 52.60
reaction: lupus-like syndrome
  NAB: 179
  RAB: 27.45
  log10 UAB (Statistical Unexpectedness): 215.11
reaction: medication error
  NAB: 17
  RAB: 0.07
  log10 UAB (Statistical Unexpectedness): 75.78
[11]
  NAB: 6
  RAB: 0.05
  log10 UAB (Statistical Unexpectedness): 41.69
[12]
  NAB: 66
  RAB: 9.58
  log10 UAB (Statistical Unexpectedness): 43.17
reaction: pneumonia nos
  NAB: 369
  RAB: 2.92
  log10 UAB (Statistical Unexpectedness): 71.42
[13]
  NAB: 99
  RAB: 23.31
  log10 UAB (Statistical Unexpectedness): 109.04
reaction: pyrexia
  NAB: 596
  RAB: 1.80
  log10 UAB (Statistical Unexpectedness): 41.44
reaction: rhabdomyolysis
  RAB: 0.08
  log10 UAB (Statistical Unexpectedness): 58.33
[14]
  NAB: 60
  RAB: 12.27
  log10 UAB (Statistical Unexpectedness): 46.14
reaction: rigors
  NAB: 252
  RAB: 2.65
  log10 UAB (Statistical Unexpectedness): 41.86
reaction: sepsis nos
  NAB: 268
  RAB: 3.28
  log10 UAB (Statistical Unexpectedness): 61.87
[15]
  NAB: 192
  RAB: 11.24
  log10 UAB (Statistical Unexpectedness): 137.84
reaction: tuberculosis
  NAB: 64
  RAB: 25.34
  log10 UAB (Statistical Unexpectedness): 74.07
reaction: tuberculosis nos
  NAB: 275
  RAB: 29.00
  log10 UAB (Statistical Unexpectedness): >308.00
